Data: patent publication US20050214772, “Thio modified aptamer synthetic methods and compositions” (Board Of Regents, The University Of Texas System, published 2005)

What was measured:
[1] = biological target: NF-IL6 (C/EBPbeta) tryptic core domain bZIP (TCD) (UniProt P17676); assay: FP; details: Kobs, direct titration, normal phosphate backbone
c-Rel homodimer [2] = biological target: T1, c-Rel homodimer (UniProt Q04864 Q04864:2-619); assay: EMSA; single-copy site behaves similarly to CK-1; details: chain copies: 2 (stated)
T1 sequence: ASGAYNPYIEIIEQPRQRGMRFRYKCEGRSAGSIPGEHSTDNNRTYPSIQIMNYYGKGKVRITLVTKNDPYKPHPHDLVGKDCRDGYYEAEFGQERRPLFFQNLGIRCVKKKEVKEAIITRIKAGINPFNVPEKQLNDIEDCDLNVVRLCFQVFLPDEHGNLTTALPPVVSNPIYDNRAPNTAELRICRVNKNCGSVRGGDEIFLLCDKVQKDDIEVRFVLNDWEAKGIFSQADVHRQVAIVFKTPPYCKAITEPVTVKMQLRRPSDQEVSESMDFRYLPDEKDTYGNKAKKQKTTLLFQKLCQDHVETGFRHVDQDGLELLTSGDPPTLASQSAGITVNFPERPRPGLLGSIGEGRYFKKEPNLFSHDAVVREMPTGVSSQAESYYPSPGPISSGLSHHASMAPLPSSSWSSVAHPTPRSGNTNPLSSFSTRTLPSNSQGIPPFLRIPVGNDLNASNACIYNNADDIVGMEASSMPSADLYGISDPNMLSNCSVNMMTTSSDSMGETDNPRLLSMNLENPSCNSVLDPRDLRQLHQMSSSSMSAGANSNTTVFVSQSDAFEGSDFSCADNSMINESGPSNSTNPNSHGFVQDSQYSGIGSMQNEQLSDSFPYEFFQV

NF-kB p50 homodimer [3] = biological target: T2, NF-kB p50 homodimer (UniProt P19838 P19838:1-433); assay: EMSA; competition with 32P-IgkB; specificity lost on full thiolation; details: chain copies: 2 (stated)
T2 sequence (P19838 1-433, one chain of several): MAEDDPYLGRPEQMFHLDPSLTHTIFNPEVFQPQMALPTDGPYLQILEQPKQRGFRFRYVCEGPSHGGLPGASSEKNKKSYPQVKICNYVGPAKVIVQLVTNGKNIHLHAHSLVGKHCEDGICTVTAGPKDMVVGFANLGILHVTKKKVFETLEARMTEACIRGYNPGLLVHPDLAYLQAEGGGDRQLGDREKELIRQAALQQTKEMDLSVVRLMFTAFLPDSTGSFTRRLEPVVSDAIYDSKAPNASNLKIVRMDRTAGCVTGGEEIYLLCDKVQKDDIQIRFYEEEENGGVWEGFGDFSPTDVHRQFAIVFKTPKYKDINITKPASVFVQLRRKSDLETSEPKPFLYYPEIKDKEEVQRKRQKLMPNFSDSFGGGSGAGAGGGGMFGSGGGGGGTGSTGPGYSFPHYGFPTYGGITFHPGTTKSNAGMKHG
Description: In standard competitive binding assays, ³²P-IgκB promoter element ODN duplex was incubated with recombinant p50 or p65 and competitor oligonucleotide (A) phosphodiester CK-1; (B) phosphorothioate CK-1. The reactions were then run on a nondenaturing polyacrylamide gel, and the amount of radioactivity bound to protein and shifted in the gel was quantitated by direct counting. […] It is the recognition that [S]-ODNs with large numbers of phosphorothioate linkages are “sticky” and tend to bind with poor specificity to proteins that led to one of the embodiments of the present invention. Using the method disclosed herein it was determined that if the number of phosphorothioate linkages is reduced to only 2-4, specificity can be restored, but binding is not enhanced.

c-Rel homodimer [4] = biological target: T1, c-Rel homodimer; assay: EMSA; binds and competes; details: chain copies: 2 (stated)
NF-kB p50 homodimer [5] = biological target: T2, NF-kB p50 homodimer; assay: EMSA; full monothiolation loses specificity; details: chain copies: 2 (stated)
NF-kB p50 homodimer [6] = biological target: T2, NF-kB p50 homodimer; assay: EMSA; labeled probe in competition assays; details: chain copies: 2 (stated); label: 32P

NF-IL6 (C/EBPbeta) tryptic core domain bZIP (TCD), sequence (P17676 266-345): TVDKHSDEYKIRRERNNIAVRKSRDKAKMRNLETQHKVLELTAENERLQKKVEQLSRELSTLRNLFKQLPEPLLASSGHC

Q: How did the Kd [1] turn out when “TGCAGATTGCGCAATCTGCA (double strand) [C/EBPbeta palindromic 20-mer]” was run?
A: 10 nM

B1: CK-14 phosphodiester duplex (dsDNA)
DNA 1: CCAGGAGATTCCAC
DNA 2: GTGGAATCTCCTGG
Q: Does B1 bind (c-Rel homodimer [2])?
A: binds

B2: CK-1 phosphorothioate duplex (dsDNA)
DNA 1: CCAGGAGATTCCACCCAGGAGATTCCACCCAGGAGATTCCAC
DNA 2: GTGGAATCTCCTGGGTGGAATCTCCTGGGTGGAATCTCCTGG
modifications: PS all linkages
Q: Does B2 bind (NF-kB p50 homodimer [3])?
A: binds

B3: CK-1 42-mer phosphodiester duplex (dsDNA)
DNA 1: B2 DNA 1
DNA 2: B2 DNA 2
Q: Does B3 bind (c-Rel homodimer [4])?
A: binds

B4: CK-14 fully monothiolated duplex (dsDNA)
DNA 1: CCAGGAGATTCCAC
DNA 2: GTGGAATCTCCTGG
modifications: PS all linkages
Q: Does B4 bind (NF-kB p50 homodimer [5])?
A: binds

B5: IgkB promoter element 22-mer (dsDNA)
DNA 1: AGTTGAGGGGACTTTCCCAGGC
DNA 2: GCCTGGGAAAGTCCCCTCAACT
Q: Does B5 bind (NF-kB p50 homodimer [6])?
A: binds
